From publication PMC9241723 come the findings set out here.

This data set concerns the target T1, MaNCP1-N (N-terminal C2H2 zinc finger cluster of MaNCP1) (Metarhizium acridum (CQMa102)) (UniProt E9E378).
T1 sequence: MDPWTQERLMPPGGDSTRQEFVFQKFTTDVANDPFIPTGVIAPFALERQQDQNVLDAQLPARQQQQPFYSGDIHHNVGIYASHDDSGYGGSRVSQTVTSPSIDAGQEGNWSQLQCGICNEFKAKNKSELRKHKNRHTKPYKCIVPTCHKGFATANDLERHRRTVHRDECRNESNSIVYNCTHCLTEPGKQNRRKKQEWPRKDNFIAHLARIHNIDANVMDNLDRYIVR
Nature of the data set: EMSA. The following applies: Chemiluminescent EMSA kit (Beyotime), biotin-labeled probe; buffer, salt, pH and temperature not stated.

As to “AAAGATCAATAGGAGCTCAGACGACGAGATCGGATGGTGGGGTTCCGGGCAGGCGCAGGCGCGGCGGAAGTCGGCTAGCAGGAGCAACCCAATTGATAAGAGCTCAAGTG (double strand) [MaNmrA promoter probe]”, the binding entry is given as “binds”.
